“Also recorded” adds a separate entry of the source.

The subject of data set [1] is PAR2M1 (leucine38 to alanine). Nature of the data set: Calcium imaging in HeLa cells transfected with PAR2M1. Conditions: cathepsin S 2 µM, KVDGTS 100 µM. The format is cell-based, human. As for the experimental part:
(§1) Human PAR2 cDNA was cloned as an Xho I-Hind III fragment (1206 bp) into pcDNA3.1(−). 10 µg of DNA were diluted into 0.5 ml of DMEM and mixed with 0.5 ml of DMEM containing 10 µl of Lipofectamine 2000 transfection reagent and incubated at room temperature for 20 minutes. HeLa cells were grown to confluence, trypsinized and 1×10^6 cells were pelleted in a 15 ml tube by centrifugation at 1000 rpm for 5 minutes. The DMEM-Lipofectamine 2000-DNA mixture (1 ml) was added to the cell pellet, resuspended gently and incubated at room temperature for 20 minutes. Four ml of complete DMEM with 10% FBS were added to the tube, mixed by inverting the tube several times, plated into a 96-well glass bottom plate at 20,000 cells/well, and placed in a 37°C CO2 incubator. HeLa cells transfected with vector alone or salmon sperm DNA (shown in the figures) were plated as a control. The medium was aspirated two days after transfection. Fura-2 was used as a ratiometric calcium-sensitive indicator as follows. […]
(§2) Imaging was performed using a Zeiss Axiovert 200 M microscope platform equipped with a flipping filter wheel for ratiometric imaging. […] The software later analyzed all images taken during each excitation period. Typically, ratiometric changes were measured in 10–20 cells in each image. An average of the fluorescence of the cells in each image was calculated and plotted against time in seconds. […]

Data set [2] relates to luciferase-PAR2M3 (leucine38 and glycine40 to alanines). Kind of data set: Gaussia luciferase release, luciferase-PAR2M3. The class given is cell-based, human. The conditions noted are these: cathepsin S 2 µM, 10 minutes, room temperature, triplicate. An excerpt: (§3) Gaussia luciferase cDNA was cloned, without its termination codon, into pcDNA3.1(−) as an Xho I-EcoR I fragment. Human PAR2 cDNA and its mutants, M1, M2 and M3, were generated using PCR primers designed to start after the signal sequence and end with a termination codon: […] and […] . The PCR amplified cDNAs were cloned into EcoR I and Hind III sites C-terminal to Gaussia luciferase cDNA. The resulting plasmids were called pGLPAR2, pGLPAR2M1, pGLPAR2M2 and pGLPAR2M3.
The QuickChange site-directed mutagenesis procedure (Agilent Technologies, Santa Clara, CA) was used to generate PAR2 N-terminal mutants. PAR2M1, with a single amino acid change, was created by substituting the leucine^38 codon, CTT, with alanine, GCT, using the primers: PAR2M1F, […], and PAR2M1R, […]. […]
The plasmid DNAs pGLPAR2, pGLPAR2M1, pGLPAR2M2 and pGLPAR2M3 (10 µg of each) were transfected into 2×10^6 HeLa cells as described above and plated into 10 cm dishes. […] Cells were scraped in order to eliminate the use of trypsin, which could activate PARs, and allowed for the luminescence assay to be performed in a small volume. […] Luminescence assays were performed in triplicate on 50 µl of the supernatants according to the instructions of the manufacturer (New England Biolabs, Ipswich, MA).

The subject of data set [3] is HeLa cells transfected with salmon sperm DNA. Kind of data set: Fura-2 calcium imaging in HeLa cells transfected with salmon sperm DNA (control). Conditions: HeLa cells transfected with salmon sperm DNA alone. The format is cell-based. As to the method: as §1
Imaging was performed using a Zeiss Axiovert 200 M microscope platform equipped with a flipping filter wheel for ratiometric imaging. […] The software later analyzed all images taken during each excitation period. Typically, ratiometric changes were measured in 10–20 cells in each image. An average of the fluorescence of the cells in each image was calculated and plotted against time in seconds.

Data set [4] relates to PAR2M2 (glycine40 to alanine). Kind of data set: Calcium imaging in HeLa cells transfected with PAR2M2. The format is cell-based, human. Conditions: cathepsin S 2 µM, KVDGTS 100 µM. As to the method:
as §1, §2

Data set [5] deals with luciferase-PAR2 (native PAR2). Nature of the data set: Gaussia luciferase release, luciferase-PAR2. The class given is cell-based, human. Conditions: cathepsin S 2 µM, 10 minutes, room temperature, triplicate.
Text: as §3
The plasmid DNAs pGLPAR2, pGLPAR2M1, pGLPAR2M2 and pGLPAR2M3 (10 µg of each) were transfected into 2×10^6 HeLa cells as described above and plated into 10 cm dishes. HeLa cells transfected with salmon sperm were used as controls. Forty-eight hours after transfection, the cells were washed twice with PBS, scraped and pelleted. Cells were scraped in order to eliminate the use of trypsin, which could activate PARs, and allowed for the luminescence assay to be performed in a small volume. Pelleted cells were resuspended into 200 µl PBS, and 100 µl of each was incubated with cathepsin S at a final concentration 2 µM for 10 minutes at room temperature. Untreated cells were processed by the same methods for a negative control. […] Luminescence assays were performed in triplicate on 50 µl of the supernatants according to the instructions of the manufacturer (New England Biolabs, Ipswich, MA).

Data set [6] in a line: Specific activity of recombinant cathepsin S. The class given is biochemical. Conditions: Z-VVR-AMC fluorimetric and Z-FR-pNA colorimetric assays. As to the method: Recombinant human cathepsin S was produced as follows. The human cathepsin S proprotein coding region was isolated by PCR using the forward and reverse primers […] CCTG and […] and a template of plasmid DNA containing the entire coding sequence of human cathepsin S. The PCR product was cut with Nco I and Xho I, and cloned into the pTYB4 expression vector from New England Biolabs for expression in E.coli. Cells were grown in LB medium induced with 0.3 mM IPTG, harvested by centrifugation, resuspended in lysis buffer A (0.5 M NaCl, 0.05 M Tris, 5 mM EDTA, pH 8.0) and lysed in a French press. The lysate was centrifuged and the protein was found predominantly in inclusion bodies which were dissolved in buffer B (10 mM DTT and 8 M urea), and refolded in the presence of buffer B containing 0.7 M L-arginine, 0.01 M glutathione, 0.001 M glutathione disulfide, and 0.005 M EDTA as described. The refolded procathepsin S was concentrated by Minimate Concentrator (Pall Corporation) and washed three times with buffer A. It was activated after adjusting to pH 4.5 with acetic acid, adding DTT to 5 µM and incubating at 37°C for 3 hours. […] The specific activity of cathepsin S was assayed using Z-VVR-AMC in fluorimetric and Z-FR-pNA in colorimetric assays[22] and determined to be 10,000 mU/mg protein.

B1: cathepsin S: Recombinant human cathepsin S, cysteine protease, expressed in E.coli, refolded and activated (protein, UniProt P25774 115-331, looked up)
Cathepsin S: LPDSVDWREKGCVTEVKYQGSCGACWAFSAVGALEAQLKLKTGKLVSLSAQNLVDCSTEKYGNKGCNGGFMTTAFQYIIDNKGIDSDASYPYKAMDQKCQYDSKYRAATCSKYTELPYGREDVLKEAVANKGPVSVGVDARHPSFFLYRSGVYYEPSCTQNVNHGVLVVGYGDLNGKEYWLVKNSWGHNFGEEGYIRMARNKGNHCGIASFPSYPEI
Consider B1, for which the “calcium response on PAR2M1 (in words)” value in data set [1] was “induced normal calcium responses; also recorded: able to stimulate native PAR2 and PAR2M1”. Moreover, the “receptor cleavage, luciferase luminescence (in words)” value in data set [2] was “did not cleave PAR2M2 or PAR2M3”; in data set [5], “cleaved the native and PAR2M1 receptors”. Further, in data set [3], the “calcium response in cells without PAR2 (in words)” value is recorded as “Neither cathepsin S nor any of the peptides induced calcium responses”. The “calcium response on PAR2M2 (in words)” value in data set [4] is listed as “did not induce calcium responses; also recorded: not PAR2M2 or PAR2M3”. Also, in data set [6], the specific activity is 10,000 mU/mg protein.

These data come from article PMC4070910, “Cathepsin S Signals via PAR2 and Generates a Novel Tethered Ligand Receptor Agonist” (PLoS ONE, 2014).
